Laboratory results published in paper PMC3795685.

Target: TAP-tagged wild-type Infected Cell Polypeptide 4 (ICP4) of HSV-1 strain KOS (herpes simplex virus type 1 (HSV-1), strain KOS) (UniProt P08392)
Experiment: pull-down; streptavidin affinity purification of TAP-tagged ICP4 from nuclear extracts of infected Vero cells (3 or 6 hpi), independent samples; biotin eluates analysed by Western blot, in part quantified with a LI-COR Odyssey imager and normalised to ICP4; untagged virus as control

UniProt P08392, sequence (P08392 whole entry): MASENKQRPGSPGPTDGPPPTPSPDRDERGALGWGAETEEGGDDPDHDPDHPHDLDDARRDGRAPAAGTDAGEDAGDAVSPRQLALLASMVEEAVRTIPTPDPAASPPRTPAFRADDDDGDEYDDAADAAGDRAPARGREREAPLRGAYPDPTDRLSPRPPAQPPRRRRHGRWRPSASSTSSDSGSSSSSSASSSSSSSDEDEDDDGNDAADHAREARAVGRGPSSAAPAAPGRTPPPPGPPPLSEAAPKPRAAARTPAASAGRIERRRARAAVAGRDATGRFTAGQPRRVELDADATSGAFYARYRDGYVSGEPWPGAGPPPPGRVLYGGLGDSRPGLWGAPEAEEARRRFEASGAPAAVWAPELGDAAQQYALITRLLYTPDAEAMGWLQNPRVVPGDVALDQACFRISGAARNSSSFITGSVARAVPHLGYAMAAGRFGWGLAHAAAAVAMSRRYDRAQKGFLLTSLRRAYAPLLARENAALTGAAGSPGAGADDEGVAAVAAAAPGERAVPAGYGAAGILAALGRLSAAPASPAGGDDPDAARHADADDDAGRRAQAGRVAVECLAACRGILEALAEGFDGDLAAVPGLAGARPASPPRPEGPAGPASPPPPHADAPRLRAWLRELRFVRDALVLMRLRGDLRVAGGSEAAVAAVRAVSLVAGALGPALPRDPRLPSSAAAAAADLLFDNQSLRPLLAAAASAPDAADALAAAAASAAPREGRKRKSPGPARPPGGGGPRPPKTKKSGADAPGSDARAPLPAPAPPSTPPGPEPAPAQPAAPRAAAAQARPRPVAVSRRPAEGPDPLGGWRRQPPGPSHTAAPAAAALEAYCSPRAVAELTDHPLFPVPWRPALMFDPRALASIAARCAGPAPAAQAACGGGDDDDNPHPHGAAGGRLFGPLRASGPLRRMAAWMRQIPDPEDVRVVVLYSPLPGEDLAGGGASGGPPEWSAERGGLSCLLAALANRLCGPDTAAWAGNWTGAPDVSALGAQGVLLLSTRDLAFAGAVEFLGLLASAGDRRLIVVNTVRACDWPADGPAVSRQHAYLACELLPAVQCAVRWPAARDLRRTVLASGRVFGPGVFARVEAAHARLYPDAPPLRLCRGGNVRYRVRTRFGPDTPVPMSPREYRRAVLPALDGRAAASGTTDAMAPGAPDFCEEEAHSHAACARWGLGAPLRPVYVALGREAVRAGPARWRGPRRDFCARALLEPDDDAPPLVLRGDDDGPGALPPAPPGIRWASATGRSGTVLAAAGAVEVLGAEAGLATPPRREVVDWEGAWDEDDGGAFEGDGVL

## MED1 (natural protein)
  fold increase of the amount co-purified at 6 hpi against 3 hpi (normalised to ICP4): 3 fold
